B1: Azoarcus group I ribozyme (parent)
chain: GUGCCUUGCGCCGGGAAACCACGCAAGGGAUGGUGUCAAAUUCGGCGAAACCUAAGCGCCCGCCCGGGCGUAUGGCAACGCCGAGCCAAGCUUCGGCGCCUGCGCCGAUGAAGGUGUAGAGACUAGACGGCACCCACCUAAGGCAAACGCUAUGGUGAAGGCAUAGUCCAGGGAGUGGCGAAAGUCACACAAACCGG

Variants of: B1
Test: reverse-splicing fitness (ratio to wild type); higher = more active; in vitro selection; Mg2+ level not given
Outline: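 An in vitro group I ribozyme library with randomized positions was T7-transcribed and gel-purified. In triplicate, 10 pmol RNA in EPPS pH 7.5 was reacted with 50 pmoles of a 30-nt RNA substrate for 1 h at 37 °C across several added MgCl2 levels (1–48 mM), then stopped with EDTA. Products were reverse transcribed from a substrate-complementary primer, PCR-amplified and sequenced (HiSeq 4000). Fitness is a variant's read proportion after selection over that before, normalised to wild type.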

Row | Variant | reverse-splicing fitness
1 | A111C A145G C169A U176A | 0.0288
2 | A111G A120C A145C C150U C169A | 0.00825
3 | A111C A145U C169A U176G | 0.00736
4 | A111C A145U C169A U176A | 0.0141
5 | A111C A145U C169A U176C | 0.018
6 | A111C A145C C150A U176C | 0.104
7 | A111C A145C C150A U176G | 0.0323
8 | A111C A145C C150A U176A | 0.0687
9 | A111C A120U C150U C169G U176C | 0.00812
10 | A111C A120U C150U C169G U176A | 0.00676
11 | A111C A120U C150U C169G U176G | 0.00251
12 | A111G A120C A145C C150G C169G U176C | 0.00487
13 | A111G A120C A145C C150G C169G U176A | 0.00746
14 | A111G A120C A145C C150G C169G U176G | 0.0036
15 | A111C A145C C169U U176G | 0.00694
16 | A111C A145C C169U U176C | 0.0254
17 | A111C A145C C169U U176A | 0.0278
18 | A111C A120U C150U U176C | 0.194
19 | A111C A120U C150U U176A | 0.145
20 | A111C A120U C150U U176G | 0.0367
21 | A111C A145C C150A C169U | 0.0128

Row | Variant | reverse-splicing fitness
22 | A111C A145C C150A C169A | 0.00829
23 | A111C A145C C150A C169G | 0.00874
24 | A111G A120C A145C | 0.653
25 | A111C A145U C150G C169A U176A | 0.00872
26 | A111C A145U C150G C169A U176G | 0.007
27 | A111C A145U C150G C169A U176C | 0.011
28 | A111C A145U C150U C169U | 0.0751
29 | A111C A145U C150U C169A | 0.0212
30 | A111C A145U C150U C169G | 0.0433
31 | A111C A145G C150G C169G U176G | 0.00555
32 | A111C A145G C150G C169G U176C | 0.0102
33 | A111C A145G C150G C169G U176A | 0.00954
34 | A111C A120U C150U C169U | 0.0424
35 | A111C A120U C150U C169G | 0.0296
36 | A111C A120U C150U C169A | 0.00639
37 | A111C A145U C150A U176C | 0.166
38 | A111C A145U C150A U176G | 0.0589
39 | A111C A145U C150A U176A | 0.114
40 | A111C A120U C150G U176C | 0.0217
41 | A111C A120U C150G U176G | 0.00356
42 | A111C A120U C150G U176A | 0.0127

Row | Variant | reverse-splicing fitness
43 | A111C A145C C150G U176A | 0.0871
44 | A111C A145C C150G U176C | 0.13
45 | A111C A145C C150G U176G | 0.0182
46 | A111C A145C C150G C169G U176C | 0.00915
47 | A111C A145C C150G C169G U176A | 0.00768
48 | A111C A145C C150G C169G U176G | 0.0057
49 | A111C A120U C150G C169U | 0.00955
50 | A111C A145G C150G C169U | 0.0157
51 | A111C A145G C150G C169G | 0.0116
52 | A111C A145G C150G C169A | 0.00939
53 | A111C C169U | 0.128
54 | A111C C169G | 0.0716
55 | A111C C169A | 0.032
56 | A111C A145U C150U C169A U176A | 0.0122
57 | A111C A145U C150U C169A U176G | 0.00758
58 | A111C A145U C150U C169A U176C | 0.0129
59 | A111C A145C C150G C169G | 0.0102
60 | A111C A145C C150G C169U | 0.018
61 | A111C A145C C150G C169A | 0.00983
62 | A111C A145G C150U U176C | 0.404
63 | A111C A145G C150U U176G | 0.135

Row | Variant | reverse-splicing fitness
64 | A111C A145G C150U U176A | 0.313
65 | A111C C150A C169G U176A | 0.016
66 | A111C C150A C169G U176G | 0.00762
67 | A111C C150A C169G U176C | 0.0246
68 | A111C A145U C169U U176A | 0.0258
69 | A111C A145U C169U U176C | 0.0282
70 | A111C A145U C169U U176G | 0.00798
71 | A111G A120C A145C C150A C169U | 0.0193
72 | A111G A120C A145C C150A C169G | 0.00815
73 | A111G A120C A145C C150A C169A | 0.00705
74 | A111C A145G C169U U176G | 0.00717
75 | A111C A145G C169U U176A | 0.0269
76 | A111C A145G C169U U176C | 0.0294
77 | A111C A120U C150U | 0.416
78 | A111C C150U C169G U176C | 0.0234
79 | A111C C150U C169G U176G | 0.0072
80 | A111C C150U C169G U176A | 0.014
81 | A111C C150U C169A | 0.0198
82 | A111C C150U C169U | 0.0632
83 | A111C C150U C169G | 0.0354
